Assay results as given in the supplement of paper PMC9112550, “Optimization of the antimicrobial peptide Bac7 by deep mutational scanning” (BMC Biology, 2022).

tested on: Escherichia coli TOP10; assay: shrunken log2 fold change of peptide-encoding DNA abundance (4.5 h post-induction vs induction); higher = less antimicrobial activity (less host growth inhibition); settings: time post-induction: 4.5 h; library: site-saturation at positions 5, 18, 19, 20
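Note: peptides expressed intracellularly from a pBAD plasmid library in pooled LB shake-flask culture, induced with 0.3% L-arabinose, DNA abundance read by NGS, three biological replicates, DESeq2 with apeglm shrinkage.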

Point of comparison: RRIRARPPRLPRPRPRPQNLPRP, “shrunken log2 fold change” value -0.564. Against it:
- RRIRTRPPRLPRPRPRPYLSPRP — higher, 0.0138
- RRIRKRPPRLPRPRPRPQYMPRP — higher, 0.0201
- RRIRKRPPRLPRPRPRPYNTPRP — higher, -0.339
- RRIRQRPPRLPRPRPRPKYSPRP — higher, -0.0125
- RRIRVRPPRLPRPRPRPADTPRP — higher, -0.32
- RRIRYRPPRLPRPRPRPVYRPRP — higher, -0.158
- RRIRVRPPRLPRPRPRPWGAPRP — higher, 0.21
- RRIRERPPRLPRPRPRPARCPRP — higher, 0.114
- RRIRHRPPRLPRPRPRPPYIPRP — higher, -0.175
- RRIRARPPRLPRPRPRPQQCPRP — higher, 0.132
- RRIRTRPPRLPRPRPRPYTWPRP — within 0.2 log units, -0.465
- RRIRTRPPRLPRPRPRPHNSPRP — lower, -1.22
- RRIRRRPPRLPRPRPRPKYCPRP — higher, 0.0144
- RRIRTRPPRLPRPRPRPLVIPRP — within 0.2 log units, -0.44
- RRIRIRPPRLPRPRPRPCYFPRP — lower, -0.906
- RRIRVRPPRLPRPRPRPFHPPRP — higher, -0.309
- RRIRQRPPRLPRPRPRPAWWPRP — higher, 0.95
- RRIRYRPPRLPRPRPRPARMPRP — higher, -0.0508
- RRIRTRPPRLPRPRPRPEFSPRP — higher, 0.00789
- RRIRCRPPRLPRPRPRPSFSPRP — within 0.2 log units, -0.571
- RRIRLRPPRLPRPRPRPDNFPRP — higher, 0.0569
- RRIRIRPPRLPRPRPRPTWKPRP — higher, -0.0541
- RRIRKRPPRLPRPRPRPFPDPRP — higher, -0.112
- RRIRRRPPRLPRPRPRPDRIPRP — higher, 0.14
- RRIRNRPPRLPRPRPRPGEGPRP — higher, 0.196
- RRIRTRPPRLPRPRPRPRELPRP — higher, 0.267
- RRIRMRPPRLPRPRPRPYWGPRP — higher, -0.0296
- RRIRPRPPRLPRPRPRPEFTPRP — higher, 0.26
- RRIRYRPPRLPRPRPRPAKWPRP — higher, 0.0339
- RRIRIRPPRLPRPRPRPDHCPRP — higher, -0.0229
- RRIRCRPPRLPRPRPRPDAVPRP — higher, 0.0365
- RRIRMRPPRLPRPRPRPSCEPRP — higher, 0.541
- RRIRSRPPRLPRPRPRPKHMPRP — higher, 0.00683
- RRIRSRPPRLPRPRPRPIYWPRP — higher, -0.0771
- RRIRLRPPRLPRPRPRPRDFPRP — higher, -0.206
- RRIRGRPPRLPRPRPRPFMVPRP — higher, -0.131
- RRIRKRPPRLPRPRPRPPFWPRP — higher, 1.2
- RRIRCRPPRLPRPRPRPHIVPRP — higher, -0.325
- RRIRERPPRLPRPRPRPHWIPRP — higher, -0.117
- RRIRLRPPRLPRPRPRPWLVPRP — higher, -0.0391
- RRIRNRPPRLPRPRPRPDVSPRP — higher, -0.0754
- RRIRGRPPRLPRPRPRPFKAPRP — higher, 0.2
- RRIRQRPPRLPRPRPRPPVDPRP — higher, -0.19
- RRIRNRPPRLPRPRPRPWDMPRP — higher, -0.304
- RRIRTRPPRLPRPRPRPIGDPRP — higher, -0.293
- RRIRWRPPRLPRPRPRPIWMPRP — higher, -0.000467
- RRIRPRPPRLPRPRPRPPWSPRP — higher, 0.00901
- RRIRRRPPRLPRPRPRPTDKPRP — higher, 0.0418
- RRIRTRPPRLPRPRPRPNFLPRP — higher, 0.998
- RRIRGRPPRLPRPRPRPNVLPRP — higher, -0.0548
- RRIRRRPPRLPRPRPRPVSFPRP — higher, 0.178
- RRIRRRPPRLPRPRPRPKPRPRP — higher, 0.825
- RRIRARPPRLPRPRPRPQIYPRP — higher, -0.354
- RRIRERPPRLPRPRPRPNSIPRP — higher, -0.317
- RRIRWRPPRLPRPRPRPDLVPRP — higher, 0.0575
- RRIRLRPPRLPRPRPRPRVKPRP — higher, -0.0432
- RRIRGRPPRLPRPRPRPVGDPRP — higher, 0.802
- RRIRKRPPRLPRPRPRPICEPRP — higher, 0.115
- RRIRPRPPRLPRPRPRPEGFPRP — higher, 0.86
- RRIRGRPPRLPRPRPRPQLSPRP — higher, 0.0797
- RRIRNRPPRLPRPRPRPNYFPRP — higher, 0.169
- RRIRGRPPRLPRPRPRPLCFPRP — higher, 0.705
- RRIRNRPPRLPRPRPRPSASPRP — higher, -0.2
- RRIRIRPPRLPRPRPRPGEGPRP — higher, 0.38
- RRIRCRPPRLPRPRPRPQVYPRP — higher, -0.313
- RRIRWRPPRLPRPRPRPMEHPRP — higher, 0.107
- RRIRARPPRLPRPRPRPNSRPRP — higher, 0.0429
- RRIRPRPPRLPRPRPRPSVWPRP — higher, -0.0905
- RRIRPRPPRLPRPRPRPAHFPRP — higher, 0.111
- RRIRARPPRLPRPRPRPYHKPRP — higher, -0.193
- RRIRHRPPRLPRPRPRPFLMPRP — within 0.2 log units, -0.456
- RRIRTRPPRLPRPRPRPVDLPRP — higher, -0.0153
- RRIRYRPPRLPRPRPRPIFYPRP — within 0.2 log units, -0.638
- RRIRMRPPRLPRPRPRPIPTPRP — higher, 0.0467
- RRIRLRPPRLPRPRPRPTELPRP — higher, -0.118
- RRIRHRPPRLPRPRPRPHDAPRP — higher, -0.357
- RRIRWRPPRLPRPRPRPCHNPRP — lower, -1.64
- RRIRWRPPRLPRPRPRPGINPRP — higher, 0.0653
- RRIRIRPPRLPRPRPRPWWTPRP — higher, -0.0807
- RRIRKRPPRLPRPRPRPSPTPRP — higher, -0.00658
- RRIRARPPRLPRPRPRPAKNPRP — higher, 0.312
- RRIRQRPPRLPRPRPRPLWKPRP — higher, -0.0262
- RRIRGRPPRLPRPRPRPEYPPRP — higher, 0.77
- RRIRDRPPRLPRPRPRPVYVPRP — within 0.2 log units, -0.563
- RRIRDRPPRLPRPRPRPNPAPRP — higher, 0.0831
- RRIRTRPPRLPRPRPRPWNCPRP — higher, -0.214
- RRIRMRPPRLPRPRPRPQQCPRP — higher, 0.143
- RRIRSRPPRLPRPRPRPIVNPRP — higher, -0.259
- RRIRARPPRLPRPRPRPGNSPRP — higher, -0.108
- RRIRCRPPRLPRPRPRPSDIPRP — lower, -0.814
- RRIRKRPPRLPRPRPRPFHTPRP — higher, -0.0289
- RRIRPRPPRLPRPRPRPCMHPRP — higher, -0.297
- RRIRWRPPRLPRPRPRPYVCPRP — higher, -0.00902
- RRIRTRPPRLPRPRPRPNWQPRP — higher, 0.0832
- RRIRHRPPRLPRPRPRPYWTPRP — higher, 0.0019
- RRIRVRPPRLPRPRPRPDLKPRP — higher, 0.00797
- RRIRWRPPRLPRPRPRPNLEPRP — higher, 0.322
- RRIRRRPPRLPRPRPRPYQKPRP — within 0.2 log units, -0.458
- RRIRLRPPRLPRPRPRPITHPRP — higher, -0.24
- RRIRKRPPRLPRPRPRPMRQPRP — higher, 0.384
- RRIRSRPPRLPRPRPRPFAAPRP — higher, 0.355
- RRIRPRPPRLPRPRPRPDTDPRP — higher, -0.158
- RRIRVRPPRLPRPRPRPYYEPRP — within 0.2 log units, -0.632
- RRIRNRPPRLPRPRPRPDYQPRP — higher, -0.165
- RRIRFRPPRLPRPRPRPNTVPRP — higher, -0.363
- RRIRMRPPRLPRPRPRPFDFPRP — higher, 0.0495
- RRIRTRPPRLPRPRPRPCWHPRP — higher, -0.119
- RRIRKRPPRLPRPRPRPLAKPRP — higher, 0.614
- RRIRPRPPRLPRPRPRPFFYPRP — higher, -0.214
- RRIRRRPPRLPRPRPRPDFVPRP — higher, -0.0983
- RRIRERPPRLPRPRPRPVQNPRP — higher, -0.0413
- RRIRKRPPRLPRPRPRPWTHPRP — higher, 0.0375
- RRIRQRPPRLPRPRPRPNQYPRP — within 0.2 log units, -0.529
- RRIRGRPPRLPRPRPRPWHHPRP — higher, -0.26
- RRIRQRPPRLPRPRPRPCRLPRP — higher, -0.15
- RRIRWRPPRLPRPRPRPCGCPRP — higher, -0.0615
- RRIRPRPPRLPRPRPRPVTVPRP — higher, -0.163
- RRIRERPPRLPRPRPRPVACPRP — higher, -0.0696
- RRIRRRPPRLPRPRPRPFIEPRP — higher, 0.0206
- RRIRKRPPRLPRPRPRPLMIPRP — higher, -0.171
- RRIRVRPPRLPRPRPRPGRLPRP — higher, -0.0194
- RRIRMRPPRLPRPRPRPCFAPRP — higher, 0.431
- RRIRERPPRLPRPRPRPYPQPRP — lower, -0.898
- RRIRVRPPRLPRPRPRPAFEPRP — higher, 0.125
- RRIRPRPPRLPRPRPRPGYDPRP — higher, -0.0887
- RRIRGRPPRLPRPRPRPAKSPRP — higher, 0.492
- RRIRNRPPRLPRPRPRPDVEPRP — higher, -0.00443
- RRIRDRPPRLPRPRPRPWYSPRP — higher, -0.0808
- RRIRHRPPRLPRPRPRPDQCPRP — higher, -0.000823
- RRIRFRPPRLPRPRPRPNDFPRP — higher, -0.228
- RRIRTRPPRLPRPRPRPPHCPRP — higher, 0.474
- RRIRSRPPRLPRPRPRPKQVPRP — higher, 0.0497
- RRIRHRPPRLPRPRPRPHSIPRP — higher, -0.318
- RRIRTRPPRLPRPRPRPNQKPRP — higher, -0.306
- RRIRVRPPRLPRPRPRPWFTPRP — higher, 0.0469
- RRIRQRPPRLPRPRPRPTYEPRP — higher, -0.0761
- RRIRGRPPRLPRPRPRPWARPRP — higher, 0.241
- RRIRTRPPRLPRPRPRPFHGPRP — higher, -0.0212
- RRIRLRPPRLPRPRPRPEEAPRP — higher, 0.495
- RRIRWRPPRLPRPRPRPGVEPRP — higher, 0.579
- RRIRQRPPRLPRPRPRPQQSPRP — higher, -0.0224
- RRIRNRPPRLPRPRPRPMMLPRP — higher, -0.0295
- RRIRRRPPRLPRPRPRPSKDPRP — higher, 0.0136
- RRIRERPPRLPRPRPRPVNQPRP — higher, -0.123
- RRIRPRPPRLPRPRPRPCQGPRP — higher, 0.056
- RRIRPRPPRLPRPRPRPQFYPRP — within 0.2 log units, -0.592
- RRIRVRPPRLPRPRPRPTWTPRP — higher, 0.221
- RRIRMRPPRLPRPRPRPDMKPRP — higher, 0.182
- RRIRQRPPRLPRPRPRPGKNPRP — higher, -0.294
